From patent US12630600B2 (MEDIMMUNE LIMITED, priority 2022, dated 2026)
Starred links: 1 amine or outer side, 2 acyl side, 3 side chain; linkers in the order of their positions; H or OH if unused. Non-standard residues stand in square brackets, D forms with d. Groups on a side chain read outwards from the residue. No end group written: not given here. *: point of attachment. C20 diacid = O=C(O)CCCCCCCCCCCCCCCCCCC(=O)*; C18 diacid = O=C(O)CCCCCCCCCCCCCCCCC(=O)*; γGlu = O=C(O)[C@H](CCC(=O)[*:2])N[*:1]; αMeF = C[C@](N)(Cc1ccccc1)C(=O)O; AEEA = NCCOCCOCC(=O)O; Aib = CC(C)(N)C(=O)O

B1: Peptide 147 (peptide)
peptide: H[Aib]QGTFTSDVSK[αMeF]LDSK([AEEA-AEEA-γGlu-C18 diacid])RAQDFVRWLEA[Aib]G-OH
modifications: N-terminus assumed
SMILES: CC(C)C[C@H](NC(=O)[C@H](Cc1c[nH]c2ccccc12)NC(=O)[C@H](CCCNC(=N)N)NC(=O)[C@@H](NC(=O)[C@H](Cc1ccccc1)NC(=O)[C@H](CC(=O)O)NC(=O)[C@H](CCC(N)=O)NC(=O)[C@H](C)NC(=O)[C@H](CCCNC(=N)N)NC(=O)[C@H](CCCCNC(=O)COCCOCCNC(=O)COCCOCCNC(=O)CC[C@H](NC(=O)CCCCCCCCCCCCCCCCC(=O)O)C(=O)O)NC(=O)[C@H](CO)NC(=O)[C@H](CC(=O)O)NC(=O)[C@H](CC(C)C)NC(=O)[C@](C)(Cc1ccccc1)NC(=O)[C@H](CCCCN)NC(=O)[C@H](CO)NC(=O)[C@@H](NC(=O)[C@H](CC(=O)O)NC(=O)[C@H](CO)NC(=O)[C@@H](NC(=O)[C@H](Cc1ccccc1)NC(=O)[C@@H](NC(=O)CNC(=O)[C@H](CCC(N)=O)NC(=O)C(C)(C)NC(=O)[C@@H](N)Cc1c[nH]cn1)[C@@H](C)O)[C@@H](C)O)C(C)C)C(C)C)C(=O)N[C@@H](CCC(=O)O)C(=O)N[C@@H](C)C(=O)NC(C)(C)C(=O)NCC(=O)O
B2: Peptide 150 (peptide)
peptide: H[Aib]QGTFTSDVSK[αMeF]LDSK([AEEA-AEEA-γGlu-C18 diacid])RAQDFVQWLL[Aib]TE-OH
modifications: not fully specified
B3: Peptide 166 (peptide)
peptide: H[Aib]QGTFTSDVSK[αMeF]LDSK([AEEA-AEEA-γGlu-C18 diacid])RARDFVRWLL[Aib]TE-OH
modifications: also: αMePhe at 23 (V)
B4: Peptide 153 (peptide)
peptide: H[Aib]QGTFTSDVSK[αMeF]LDSK([AEEA-AEEA-γGlu-C20 diacid])RAQDFVRWLL[Aib]E-OH
modifications: N-terminus assumed
SMILES: CC(C)C[C@H](NC(=O)[C@H](Cc1c[nH]c2ccccc12)NC(=O)[C@H](CCCNC(=N)N)NC(=O)[C@@H](NC(=O)[C@H](Cc1ccccc1)NC(=O)[C@H](CC(=O)O)NC(=O)[C@H](CCC(N)=O)NC(=O)[C@H](C)NC(=O)[C@H](CCCNC(=N)N)NC(=O)[C@H](CCCCNC(=O)COCCOCCNC(=O)COCCOCCNC(=O)CC[C@H](NC(=O)CCCCCCCCCCCCCCCCCCC(=O)O)C(=O)O)NC(=O)[C@H](CO)NC(=O)[C@H](CC(=O)O)NC(=O)[C@H](CC(C)C)NC(=O)[C@](C)(Cc1ccccc1)NC(=O)[C@H](CCCCN)NC(=O)[C@H](CO)NC(=O)[C@@H](NC(=O)[C@H](CC(=O)O)NC(=O)[C@H](CO)NC(=O)[C@@H](NC(=O)[C@H](Cc1ccccc1)NC(=O)[C@@H](NC(=O)CNC(=O)[C@H](CCC(N)=O)NC(=O)C(C)(C)NC(=O)[C@@H](N)Cc1c[nH]cn1)[C@@H](C)O)[C@@H](C)O)C(C)C)C(C)C)C(=O)N[C@@H](CC(C)C)C(=O)NC(C)(C)C(=O)N[C@@H](CCC(=O)O)C(=O)O
B5: Peptide 152 (peptide)
peptide: H[Aib]QGTFTSDVSK[αMeF]LDSK([AEEA-AEEA-γGlu-C18 diacid])RAQDFVRWLL[Aib]E-OH
modifications: N-terminus assumed
SMILES: CC(C)C[C@H](NC(=O)[C@H](Cc1c[nH]c2ccccc12)NC(=O)[C@H](CCCNC(=N)N)NC(=O)[C@@H](NC(=O)[C@H](Cc1ccccc1)NC(=O)[C@H](CC(=O)O)NC(=O)[C@H](CCC(N)=O)NC(=O)[C@H](C)NC(=O)[C@H](CCCNC(=N)N)NC(=O)[C@H](CCCCNC(=O)COCCOCCNC(=O)COCCOCCNC(=O)CC[C@H](NC(=O)CCCCCCCCCCCCCCCCC(=O)O)C(=O)O)NC(=O)[C@H](CO)NC(=O)[C@H](CC(=O)O)NC(=O)[C@H](CC(C)C)NC(=O)[C@](C)(Cc1ccccc1)NC(=O)[C@H](CCCCN)NC(=O)[C@H](CO)NC(=O)[C@@H](NC(=O)[C@H](CC(=O)O)NC(=O)[C@H](CO)NC(=O)[C@@H](NC(=O)[C@H](Cc1ccccc1)NC(=O)[C@@H](NC(=O)CNC(=O)[C@H](CCC(N)=O)NC(=O)C(C)(C)NC(=O)[C@@H](N)Cc1c[nH]cn1)[C@@H](C)O)[C@@H](C)O)C(C)C)C(C)C)C(=O)N[C@@H](CC(C)C)C(=O)NC(C)(C)C(=O)N[C@@H](CCC(=O)O)C(=O)O
B6: Peptide 149 (peptide)
peptide: H[Aib]QGTFTSDVSK[αMeF]LDSK([AEEA-AEEA-γGlu-C18 diacid])RAQDFVRWVVE[Aib]G-OH
modifications: N-terminus assumed
SMILES: CC(C)C[C@H](NC(=O)[C@](C)(Cc1ccccc1)NC(=O)[C@H](CCCCN)NC(=O)[C@H](CO)NC(=O)[C@@H](NC(=O)[C@H](CC(=O)O)NC(=O)[C@H](CO)NC(=O)[C@@H](NC(=O)[C@H](Cc1ccccc1)NC(=O)[C@@H](NC(=O)CNC(=O)[C@H](CCC(N)=O)NC(=O)C(C)(C)NC(=O)[C@@H](N)Cc1c[nH]cn1)[C@@H](C)O)[C@@H](C)O)C(C)C)C(=O)N[C@@H](CC(=O)O)C(=O)N[C@@H](CO)C(=O)N[C@@H](CCCCNC(=O)COCCOCCNC(=O)COCCOCCNC(=O)CC[C@H](NC(=O)CCCCCCCCCCCCCCCCC(=O)O)C(=O)O)C(=O)N[C@@H](CCCNC(=N)N)C(=O)N[C@@H](C)C(=O)N[C@@H](CCC(N)=O)C(=O)N[C@@H](CC(=O)O)C(=O)N[C@@H](Cc1ccccc1)C(=O)N[C@H](C(=O)N[C@@H](CCCNC(=N)N)C(=O)N[C@@H](Cc1c[nH]c2ccccc12)C(=O)N[C@H](C(=O)N[C@H](C(=O)N[C@@H](CCC(=O)O)C(=O)NC(C)(C)C(=O)NCC(=O)O)C(C)C)C(C)C)C(C)C
B7: Peptide 148 (peptide)
peptide: H[Aib]QGTFTSDVSK[αMeF]LDSK([AEEA-AEEA-γGlu-C18 diacid])RAQDFVRWIAE[Aib]G-OH
modifications: N-terminus assumed
SMILES: CC[C@H](C)[C@H](NC(=O)[C@H](Cc1c[nH]c2ccccc12)NC(=O)[C@H](CCCNC(=N)N)NC(=O)[C@@H](NC(=O)[C@H](Cc1ccccc1)NC(=O)[C@H](CC(=O)O)NC(=O)[C@H](CCC(N)=O)NC(=O)[C@H](C)NC(=O)[C@H](CCCNC(=N)N)NC(=O)[C@H](CCCCNC(=O)COCCOCCNC(=O)COCCOCCNC(=O)CC[C@H](NC(=O)CCCCCCCCCCCCCCCCC(=O)O)C(=O)O)NC(=O)[C@H](CO)NC(=O)[C@H](CC(=O)O)NC(=O)[C@H](CC(C)C)NC(=O)[C@](C)(Cc1ccccc1)NC(=O)[C@H](CCCCN)NC(=O)[C@H](CO)NC(=O)[C@@H](NC(=O)[C@H](CC(=O)O)NC(=O)[C@H](CO)NC(=O)[C@@H](NC(=O)[C@H](Cc1ccccc1)NC(=O)[C@@H](NC(=O)CNC(=O)[C@H](CCC(N)=O)NC(=O)C(C)(C)NC(=O)[C@@H](N)Cc1c[nH]cn1)[C@@H](C)O)[C@@H](C)O)C(C)C)C(C)C)C(=O)N[C@@H](C)C(=O)N[C@@H](CCC(=O)O)C(=O)NC(C)(C)C(=O)NCC(=O)O
B8: Peptide 146 (peptide)
peptide: H[Aib]QGTFTSDVSK[αMeF]LDSK([AEEA-AEEA-γGlu-C18 diacid])RAQDFVRWLASR-OH
modifications: N-terminus assumed
SMILES: CC(C)C[C@H](NC(=O)[C@H](Cc1c[nH]c2ccccc12)NC(=O)[C@H](CCCNC(=N)N)NC(=O)[C@@H](NC(=O)[C@H](Cc1ccccc1)NC(=O)[C@H](CC(=O)O)NC(=O)[C@H](CCC(N)=O)NC(=O)[C@H](C)NC(=O)[C@H](CCCNC(=N)N)NC(=O)[C@H](CCCCNC(=O)COCCOCCNC(=O)COCCOCCNC(=O)CC[C@H](NC(=O)CCCCCCCCCCCCCCCCC(=O)O)C(=O)O)NC(=O)[C@H](CO)NC(=O)[C@H](CC(=O)O)NC(=O)[C@H](CC(C)C)NC(=O)[C@](C)(Cc1ccccc1)NC(=O)[C@H](CCCCN)NC(=O)[C@H](CO)NC(=O)[C@@H](NC(=O)[C@H](CC(=O)O)NC(=O)[C@H](CO)NC(=O)[C@@H](NC(=O)[C@H](Cc1ccccc1)NC(=O)[C@@H](NC(=O)CNC(=O)[C@H](CCC(N)=O)NC(=O)C(C)(C)NC(=O)[C@@H](N)Cc1c[nH]cn1)[C@@H](C)O)[C@@H](C)O)C(C)C)C(C)C)C(=O)N[C@@H](C)C(=O)N[C@@H](CO)C(=O)N[C@@H](CCCNC(=N)N)C(=O)O
B9: Peptide 151 (peptide)
peptide: H[Aib]QGTFTSDVSK[αMeF]LDSK([AEEA-AEEA-γGlu-C20 diacid])RAQDFVRWLL[Aib]TE-OH
modifications: N-terminus assumed
SMILES: CC(C)C[C@H](NC(=O)[C@H](Cc1c[nH]c2ccccc12)NC(=O)[C@H](CCCNC(=N)N)NC(=O)[C@@H](NC(=O)[C@H](Cc1ccccc1)NC(=O)[C@H](CC(=O)O)NC(=O)[C@H](CCC(N)=O)NC(=O)[C@H](C)NC(=O)[C@H](CCCNC(=N)N)NC(=O)[C@H](CCCCNC(=O)COCCOCCNC(=O)COCCOCCNC(=O)CC[C@H](NC(=O)CCCCCCCCCCCCCCCCCCC(=O)O)C(=O)O)NC(=O)[C@H](CO)NC(=O)[C@H](CC(=O)O)NC(=O)[C@H](CC(C)C)NC(=O)[C@](C)(Cc1ccccc1)NC(=O)[C@H](CCCCN)NC(=O)[C@H](CO)NC(=O)[C@@H](NC(=O)[C@H](CC(=O)O)NC(=O)[C@H](CO)NC(=O)[C@@H](NC(=O)[C@H](Cc1ccccc1)NC(=O)[C@@H](NC(=O)CNC(=O)[C@H](CCC(N)=O)NC(=O)C(C)(C)NC(=O)[C@@H](N)Cc1c[nH]cn1)[C@@H](C)O)[C@@H](C)O)C(C)C)C(C)C)C(=O)N[C@@H](CC(C)C)C(=O)NC(C)(C)C(=O)N[C@H](C(=O)N[C@@H](CCC(=O)O)C(=O)O)[C@@H](C)O

What follows are binders tested against human GLP-1 receptor (human, UniProt P43220) (assay: cell-based or functional assay).

cAMP production EC50	Binder
15.3 pM	B1
166 pM	B2
48 pM	B3
41.2 pM	B4
11.9 pM	B5
8.71 pM	B6
40.2 pM	B7
24.6 pM	B8
111 pM	B9

The binders below were run against human glucagon receptor (human, UniProt P47871) (assay: cell-based or functional assay).

cAMP production EC50	Binder
43.5 pM	B1
355 pM	B2
270 pM	B3
99 pM	B4
20.4 pM	B5
2650 pM	B6
568 pM	B7
1630 pM	B8
178 pM	B9
